Measured values taken from paper PMC7065948.

Experiments:
Test in all cases: peptide or protein array
[1] = target: PTPESANL (PL8) (SIVsm (isolated from sooty mangabeys) strains)
[2] = target: TTPESANL (TL8) (SIVmac251 strains)
[3] = target: Tat SL8 epitope (Tat 28-35) (SIVmac239)

“rhesus MHC class I Mamu-A1*001 complex (heavy chain with human β2 microglobulin) (from UniProt P61769 21-119)” gave a binding score [1] of 6.28, a binding score [2] of 8.72 and a binding score [3] of 8.33. It also gave a fluorescence intensity above the median (sd above the median) [3] of 7.15.
